This is an account of results in US20120231006A1 (Amgen, published 2012).

The target of assay [1] is T1, hOrai1-mOrai1 ECL2 chimeric protein (human/mouse chimera, UniProt Q96D31 1-301).
T1 construct: human Orai1 with mouse ECL2; also called Ch
Put plainly: FACS, 293EBNA transfectants. From the text: FIG. 15A-B illustrates the results of FACS analysis showing binding to human Orai1 extracellular loop 2-mouse Orai1 mutant expressed on the surface of HEK-293-EBNA cells. HEK-293-EBNA cells were transiently transfected with mouse Orai1 mutant where human Orai1 extracellular loop 2 replaced the mouse Orai1 extracellular loop 2 and human Orai1 mutant where mouse Orai1 extracellular loop 2 replaced human extracellular loop 2. Transfected cells were stained first with recombinant monoclonal antibodies then counter-stained with a secondary phycoerythrin-labeled goat (“Gt”) anti-human (“Hu”) IgG F(ab′)₂ antibody fragment and visualized using FACS.
(§1) FACS binding analysis. Transfected 293EBNA cells transiently expressed hOrai1-mOrai1 ECL2 or mOrai1-hOrai1 ECL2 chimera. The transfected cells were harvested at 48 hours post-transfection. Cells transfected with pcDNA3.1 were used as negative controls. Cells were washed once with ice-cold 1×PBS, resuspended in ice-cold FACS buffer (1×D-PBS+2% goat serum), and 2×10⁵ cells in 100 μL were stained per antibody combination. All antibody incubation steps were performed on ice for 1 hour. […] Next, the unlabelled antibody was detected using goat F(ab′)₂ anti-mouse or anti-human IgG-phycoerythrin (IgG-PE), followed by a wash with 200 μL of ice-cold FACS buffer before flow cytometry analysis. Unstained cells and cells stained with detecting antibodies were used as negative controls. The values of relative level of fluorescence were calculated using FCS Express (De Novo Software) and mean values were calculated using log-transformed data (geometric mean). The results of the FACS analysis are shown in FIG. 15A-B, which supports the conclusion that the hOrai1 ECL2 domain is the region of hOrai1 where antibodies of the present invention bind.
A general note: In flow cytometry, cells or beads pass a laser one at a time.

A further assay has as its target human Orai1 (human, UniProt Q96D31 1-301). Briefly: cell-based or functional assay.
The target of the next assay is T2, human Orai2 (human, UniProt Q96SN7 1-254).
T2 construct: also called hOrai2
Briefly: FACS, 293EBNA transfectants. The method, then: (§2) Purified monoclonal antibodies from hybridoma supernantants of the subclones derived from initial hits were assessed for binding to human Orai1, Orai2 and Orai3 expressed on HEK-293-EBNA cells along with vector transfected control parental cells. Cells stained with or without primary mAbs were counter-stained with a secondary phycoerythrin-labeled goat (“Gt”) anti-human (“Hu”) IgG F(ab′)₂ antibody fragment and visualized using FACS.
as §1, with “hOrai1, human Orai2,” for “hOrai1-mOrai1 ECL2”, “human Orai3 (results of binding comparison in FIG. 11A-B), or hOrai1(S218G) (results of binding comparison in FIG. 12A-B); or hOrai1 and hSTIM1; mOrai1 and mouse STIM1; or rat Orai1 and rat STIM1 (results of binding comparison in FIG. 13).” for “mOrai1-hOrai1 ECL2 chimera.”, “[…]” for “100 μL”, “Purified mAbs were assessed by” for “The results of the”, “assay for their ability to specifically bind human Orai1, Orai2 and Orai3 proteins expressed on HEK-293 cells.” for “analysis are shown in FIG. 15A-B, which supports the conclusion that the hOrai1 ECL2 domain is the region of hOrai1 where antibodies of the present invention bind.”

The target in the next assay is human Orai3 (human, UniProt Q9BRQ5 1-295). Briefly: FACS, 293EBNA transfectants. The procedure:
as §2
as §1, with “hOrai1, human Orai2,” for “hOrai1-mOrai1 ECL2”, “human Orai3 (results of binding comparison in FIG. 11A-B), or hOrai1(S218G) (results of binding comparison in FIG. 12A-B); or hOrai1 and hSTIM1; mOrai1 and mouse STIM1; or rat Orai1 and rat STIM1 (results of binding comparison in FIG. 13).” for “mOrai1-hOrai1 ECL2 chimera.”, “[…]” for “100 μL”, “Purified mAbs were assessed by” for “The results of the”, “assay for their ability to specifically bind human Orai1, Orai2 and Orai3 proteins expressed on HEK-293 cells.” for “analysis are shown in FIG. 15A-B, which supports the conclusion that the hOrai1 ECL2 domain is the region of hOrai1 where antibodies of the present invention bind.”

In a further assay the target is T3, rat Orai1 (rat, UniProt Q5M848 1-304).
T3 construct: co-expressed with rat STIM1; also called rOrai1
Briefly: FACS, 293EBNA transfectants with STIM1, thapsigargin. The method, then: (§3) FIG. 13A-B illustrates the results of FACS analysis showing binding to human Orai1 expressed on the surface of HEK-293-EBNA cells that were treated with 2 μM Thapsigargin. HEK-293-EBNA cells were transiently transfected with human Orai1 and human STIM1, mouse Orai1 and mouse STIM1, rat Orai1 and rat STIM1 and control empty vector. Transfected cells were stained first with recombinant monoclonal antibodies then counter-stained with a secondary phycoerythrin-labeled Gt anti-Hu IgG F(ab′)₂ or Gt anti-Mu IgG F(ab′)₂ antibody fragment, as appropriate, and visualized using FACS.
as §1, with “hOrai1, human Orai2,” for “hOrai1-mOrai1 ECL2”, “human Orai3 (results of binding comparison in FIG. 11A-B), or hOrai1(S218G) (results of binding comparison in FIG. 12A-B); or hOrai1 and hSTIM1; mOrai1 and mouse STIM1; or rat Orai1 and rat STIM1 (results of binding comparison in FIG. 13).” for “mOrai1-hOrai1 ECL2 chimera.”, “[…]” for “100 μL”, “Purified mAbs were assessed by” for “The results of the”, “assay for their ability to specifically bind human Orai1, Orai2 and Orai3 proteins expressed on HEK-293 cells.” for “analysis are shown in FIG. 15A-B, which supports the conclusion that the hOrai1 ECL2 domain is the region of hOrai1 where antibodies of the present invention bind.”

Another assay deals with T4, mouse Orai1 (mouse, UniProt Q8BWG9 1-304).
T4 construct: co-expressed with mouse STIM1; also called mOrai1
Described as above. The method, then:
as §3
as §1, with “hOrai1, human Orai2,” for “hOrai1-mOrai1 ECL2”, “human Orai3 (results of binding comparison in FIG. 11A-B), or hOrai1(S218G) (results of binding comparison in FIG. 12A-B); or hOrai1 and hSTIM1; mOrai1 and mouse STIM1; or rat Orai1 and rat STIM1 (results of binding comparison in FIG. 13).” for “mOrai1-hOrai1 ECL2 chimera.”, “[…]” for “100 μL”, “Purified mAbs were assessed by” for “The results of the”, “assay for their ability to specifically bind human Orai1, Orai2 and Orai3 proteins expressed on HEK-293 cells.” for “analysis are shown in FIG. 15A-B, which supports the conclusion that the hOrai1 ECL2 domain is the region of hOrai1 where antibodies of the present invention bind.”

Assay [2] addresses T5, mOrai1-hOrai1 ECL2 chimeric protein (human/mouse chimera, UniProt Q8BWG9 1-304 (mouse entry)).
T5 construct: mouse Orai1 with human ECL2; also called Ch
Put plainly: FACS, 293EBNA, RFI-POC grade. Details: concentration or dose not given beside the values. From the text:
(§4) FIG. 16A-D illustrates the results of FACS analysis showing binding to the indicated mOrai1-hOrai1 ECL2 chimeric mutants expressed on the surface of HEK-293-EBNA cells. Transfected cells were stained first with recombinant monoclonal antibodies then counter-stained with a secondary phycoerythrin-labeled goat (“Gt”) anti-human (“Hu”) IgG F(ab′)₂ antibody fragment and visualized using FACS. In FIG. 16B and FIG. 16D, The values of Relative Fluorescence Intensity as Percent of Control (RFI-POC) are calculated from the relative fluorescence intensity geometric mean (Geo Mean). The geometric mean is an average calculated by multiplying a series of numbers and taking the nth root where n is the number of numbers in the series. It is a statistical average of a set of transformed numbers often used to represent a central tendency in a highly variable data set that minimizes the effects of extreme values.
(§5) Table 11A and Table 11B feature a schematic representation of the POC data from FIG. 16B and FIG. 16D, respectively, where the binding results are recorded as (+++) denoting binding POC from 40% to 100%, (++) for POC of 5% to less than 40%, (+) for POC from 1% to less than 5% and (−) as lack of binding with POC less than 1%.

Assay [3] has as its target T6, mOrai1-hOrai1 ECL2 (HSD) protein (human/mouse chimera, UniProt Q8BWG9 1-304 (mouse entry)).
T6 construct: also called Ch
Briefly: FACS, 293EBNA, RFI-POC grade. The arrangement: concentration or dose not given beside the values.
From the text: as §4, §5

Assay [4] concerns the target T7, mOrai1-hOrai1 ECL2 (VIV) protein (human/mouse chimera, UniProt Q8BWG9 1-304 (mouse entry)).
T7 construct: also called Ch
Briefly: FACS, 293EBNA, RFI-POC grade. The arrangement: concentration or dose not given beside the values.
From the text: as §4, §5

Sequence of human Orai1 (Q96D31 whole entry): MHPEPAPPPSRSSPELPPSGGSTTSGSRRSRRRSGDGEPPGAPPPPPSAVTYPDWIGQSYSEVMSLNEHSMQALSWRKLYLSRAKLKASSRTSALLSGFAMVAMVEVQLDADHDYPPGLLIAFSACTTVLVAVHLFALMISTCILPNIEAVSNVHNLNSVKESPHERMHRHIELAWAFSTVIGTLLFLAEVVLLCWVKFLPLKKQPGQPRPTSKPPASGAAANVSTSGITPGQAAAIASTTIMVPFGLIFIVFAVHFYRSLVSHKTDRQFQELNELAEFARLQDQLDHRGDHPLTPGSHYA
T6 sequence (Q8BWG9 other isoform, or with tags, fused parts or gaps): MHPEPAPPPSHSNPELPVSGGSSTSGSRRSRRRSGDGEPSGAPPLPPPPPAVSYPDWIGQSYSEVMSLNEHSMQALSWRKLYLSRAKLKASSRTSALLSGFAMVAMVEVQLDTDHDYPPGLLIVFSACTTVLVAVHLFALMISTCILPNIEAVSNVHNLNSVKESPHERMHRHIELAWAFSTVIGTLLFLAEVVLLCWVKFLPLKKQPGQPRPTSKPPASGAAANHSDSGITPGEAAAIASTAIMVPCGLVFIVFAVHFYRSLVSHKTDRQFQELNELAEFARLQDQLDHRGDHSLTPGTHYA
T3 sequence (Q5M848 whole entry): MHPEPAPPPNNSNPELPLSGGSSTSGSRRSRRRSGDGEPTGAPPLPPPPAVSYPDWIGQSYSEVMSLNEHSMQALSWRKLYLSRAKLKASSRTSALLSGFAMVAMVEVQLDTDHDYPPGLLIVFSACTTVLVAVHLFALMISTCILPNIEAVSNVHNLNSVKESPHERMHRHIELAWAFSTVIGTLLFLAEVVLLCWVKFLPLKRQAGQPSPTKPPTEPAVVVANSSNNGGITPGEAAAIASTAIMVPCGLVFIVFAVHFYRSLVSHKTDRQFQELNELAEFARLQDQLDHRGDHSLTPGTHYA
T7 sequence (Q8BWG9 other isoform, or with tags, fused parts or gaps): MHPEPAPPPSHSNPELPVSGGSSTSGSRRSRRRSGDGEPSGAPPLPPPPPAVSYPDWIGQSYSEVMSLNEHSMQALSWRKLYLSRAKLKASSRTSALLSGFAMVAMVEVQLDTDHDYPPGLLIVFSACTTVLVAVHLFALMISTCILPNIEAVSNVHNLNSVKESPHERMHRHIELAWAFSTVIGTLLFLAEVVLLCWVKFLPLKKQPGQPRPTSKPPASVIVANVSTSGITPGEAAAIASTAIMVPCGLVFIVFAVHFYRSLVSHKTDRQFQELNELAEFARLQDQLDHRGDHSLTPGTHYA
T1 sequence (Q96D31 other isoform, or with tags, fused parts or gaps mutant): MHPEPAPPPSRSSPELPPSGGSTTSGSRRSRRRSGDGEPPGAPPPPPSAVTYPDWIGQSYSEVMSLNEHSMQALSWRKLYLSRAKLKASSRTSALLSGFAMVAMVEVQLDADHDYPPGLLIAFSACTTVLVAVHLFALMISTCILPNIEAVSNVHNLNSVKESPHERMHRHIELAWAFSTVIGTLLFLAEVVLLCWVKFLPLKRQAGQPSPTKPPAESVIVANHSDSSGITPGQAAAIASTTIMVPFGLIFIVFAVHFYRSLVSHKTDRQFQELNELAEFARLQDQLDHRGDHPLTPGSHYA
T4 sequence (Q8BWG9 whole entry): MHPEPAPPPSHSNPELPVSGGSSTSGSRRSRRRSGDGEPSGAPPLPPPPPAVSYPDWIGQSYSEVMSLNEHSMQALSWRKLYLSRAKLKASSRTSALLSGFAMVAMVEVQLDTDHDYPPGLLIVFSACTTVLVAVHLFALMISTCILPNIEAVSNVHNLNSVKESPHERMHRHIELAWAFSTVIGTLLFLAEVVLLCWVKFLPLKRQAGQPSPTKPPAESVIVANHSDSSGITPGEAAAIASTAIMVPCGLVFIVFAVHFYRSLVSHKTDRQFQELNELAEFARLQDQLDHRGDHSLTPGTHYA
T5 sequence (Q8BWG9 other isoform, or with tags, fused parts or gaps mutant): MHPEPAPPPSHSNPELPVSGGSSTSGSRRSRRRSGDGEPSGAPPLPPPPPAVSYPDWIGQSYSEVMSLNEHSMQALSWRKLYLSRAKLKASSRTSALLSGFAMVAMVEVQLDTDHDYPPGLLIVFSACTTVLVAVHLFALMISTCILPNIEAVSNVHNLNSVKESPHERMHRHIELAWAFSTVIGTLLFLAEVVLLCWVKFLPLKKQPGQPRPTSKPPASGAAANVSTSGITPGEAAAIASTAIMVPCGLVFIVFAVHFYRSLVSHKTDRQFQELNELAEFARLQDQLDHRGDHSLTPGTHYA
T2 sequence (Q96SN7 whole entry): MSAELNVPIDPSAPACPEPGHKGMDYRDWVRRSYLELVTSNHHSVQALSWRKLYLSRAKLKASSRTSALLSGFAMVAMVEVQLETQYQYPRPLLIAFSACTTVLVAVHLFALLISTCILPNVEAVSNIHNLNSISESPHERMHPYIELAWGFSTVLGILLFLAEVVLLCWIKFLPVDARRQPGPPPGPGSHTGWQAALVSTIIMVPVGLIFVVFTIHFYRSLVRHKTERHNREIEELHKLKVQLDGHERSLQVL

B1: mAb 5B5.2 (antibody, human IgG2, lambda, V domains shown)
VH: QVQLVQSGAEVKKPGASVKVSCKASGYTFTDYYINWVRQAPGQGLEWMGWINPNSGGTDYAQKFQGRVTMTRDTSIRTAYMELNRLTSDDTAVYYCAREYGGYEDWFDPWGQGTLVTVSS
VL: QSVLTQPPSVSGAPGQRVTISCTGSNSNIGAGFDVHWYQQLPGTVPKLLIYGNNNRPSGVPDRFSGSKSGTSASLAITGLQAEDEADYYCQSYDSRLTVFGGGTKLTVLG
notes: fully human IgG2 lambda, Campaign 2; same chains as 5B5.1
As for B1, the binding result (in assay [1]; with human Orai2; in the assay with human Orai3; with rat Orai1; with mouse Orai1) was “no binding (tested: 1 µg)” in each case. Moreover, the “IC50 IFN-γ, whole blood Donor B” value with human Orai1 was found to be 6.58 nM. Also, in the assay with human Orai1, the “IC50 IL-2, whole blood Donor A” value amounted to 1.39 nM. The “IC50 IL-2, whole blood Donor B” value with human Orai1 amounted to 3.1 nM. In addition, the “POC (percent of control, FACS Geo Mean relative to binding to Ch. 1)” value in assay [2], in assay [3] and in assay [4] was 40 to 100% in each case.
